B1: Protein Z-dependent protease inhibitor (Homo sapiens), Q9UK55 (parent)
chain: MKVVPSLLLSVLLAQVWLVPGLAPSPQSPETPAPQNQTSRVVQAPKEEEEDEQEASEEKASEEEKAWLMASRQQLAKETSNFGFSLLRKISMRHDGNMVFSPFGMSLAMTGLMLGATGPTETQIKRGLHLQALKPTKPGLLPSLFKGLRETLSRNLELGLTQGSFAFIHKDFDVKETFFNLSKRYFDTECVPMNFRNASQAKRLMNHYINKETRGKIPKLFDEINPETKLILVDYILFKGKWLTPFDPVFTEVDTFHLDKYKTIKVPMMYGAGKFASTFDKNFRCHVLKLPYQGNATMLVVLMEKMGDHLALEDYLTTDLVETWLRNMKTRNMEVFFPKFKLDQKYEMHELLRQMGIRRIFSPFADLSELSATGRNLQVSRVLQRTVIEVDERGTEAVAGILSEITAYSMPPVIKVDRPFHFMIYEETSGMLLFLGRVVNPTLL

Key:
proz_human PROZ, P22891 [1] = variants of: B1; details: with proz_human PROZ
Chain of proz_human PROZ, P22891 (P22891 whole entry): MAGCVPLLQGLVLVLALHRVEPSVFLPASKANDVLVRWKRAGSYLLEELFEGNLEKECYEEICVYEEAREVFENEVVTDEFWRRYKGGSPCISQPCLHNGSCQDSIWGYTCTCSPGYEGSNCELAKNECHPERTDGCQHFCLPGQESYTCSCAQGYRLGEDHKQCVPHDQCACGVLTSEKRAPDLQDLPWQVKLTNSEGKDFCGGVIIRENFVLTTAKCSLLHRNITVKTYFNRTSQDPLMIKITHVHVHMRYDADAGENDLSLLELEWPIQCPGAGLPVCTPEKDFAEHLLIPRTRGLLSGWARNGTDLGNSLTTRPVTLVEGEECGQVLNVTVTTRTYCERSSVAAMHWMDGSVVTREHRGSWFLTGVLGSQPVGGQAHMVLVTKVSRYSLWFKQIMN

fa10_human F10, P00742 = variants of: B1; details: with fa10_human F10, P00742
proz_human PROZ, P22891 [2] = variants of: B1; details: with proz_human PROZ; remark: listed apart in the source

Row | effect of a mutation on the interaction (proz_human PROZ, P22891 [1]) | effect of a mutation on the interaction (fa10_human F10, P00742) | effect of a mutation on the interaction (proz_human PROZ, P22891 [2]) | Variant
1 | with no effect | with no effect |  | MKVVPSLLLSVLLAQVWLVPGLAPSPQSPETPAPQNQTSRVVQAPKEEEEDEQEASEEKASEEEKAWLMASRQQLAKETSNFGFSLLRKISMRHDGNMVFSPFGMSLAMTGLMLGATGPTETQIKRGLHLQALKPTKPGLLPSLFKGLRETLSRNLELGLTQGSFAFIHKDFDVKETFFNLSKRYFDTECVPMNFRNASQAKRLMNHYINKETRGKIPKLFDEINPETKLILVDYILFKGKWLTPFDPVFTEVDTFHLDKYKTIKVPMMYGAGKFASTFDKNFRCHVLKLPYQGNATMLVVLMEKMGDHLALEDYLTTDLVETWLRNMKTRNMEVFFPKFKLDQKYEMHELLRQMGIRRIFSPFADLSELSATGRNLQVSRVLQRTVIEVDERGTEAVAGILSAITAYSMPPVIKVDRPFHFMIYEETSGMLLFLGRVVNPTLL [E404A]
2 |  | with no effect |  | MKVVPSLLLSVLLAQVWLVPGLAPSPQSPETPAPQNQTSRVVQAPKEEEEDEQEASEEKASEEEKAWLMASRQQLAKETSNFGFSLLRKISMRHAGNMVFSPFGMSLAMTGLMLGATGPTETQIKRGLHLQALKPTKPGLLPSLFKGLRETLSRNLELGLTQGSFAFIHKDFDVKETFFNLSKRYFDTECVPMNFRNASQAKRLMNHYINKETRGKIPKLFDEINPETKLILVDYILFKGKWLTPFDPVFTEVDTFHLAAYKTIKVPMMYGAGKFASTFDKNFRCHVLKLPYQGNATMLVVLMEKMGDHLALEAYLTTDLVETWLRNMKTRNMEVFFPKFKLDQKYEMHELLRQMGIRRIFSPFADLSELSATGRNLQVSRVLQRTVIEVDERGTEAVAGILSEITAYSMPPVIKVDRPFHFMIYEETSGMLLFLGRVVNPTLL [D95A;D259A;K260A;D314A]
3 | disrupting interaction strength |  | disrupting interaction strength | MKVVPSLLLSVLLAQVWLVPGLAPSPQSPETPAPQNQTSRVVQAPKEEEEDEQEASEEKASEEEKAWLMASRQQLAKETSNFGFSLLRKISMRHAGNMVFSPFGMSLAMTGLMLGATGPTETQIKRGLHLQALKPTKPGLLPSLFKGLRETLSRNLELGLTQGSFAFIHKDFDVKETFFNLSKRYFDTECVPMNFRNASQAKRLMNHYINKETRGKIPKLFDEINPETKLILVDYILFKGKWLTPFDPVFTEVDTFHLAAYKTIKVPMMYGAGKFASTFDKNFRCHVLKLPYQGNATMLVVLMEKMGDHLALEDYLTTDLVETWLRNMKTRNMEVFFPKFKLDQKYEMHELLRQMGIRRIFSPFADLSELSATGRNLQVSRVLQRTVIEVDERGTEAVAGILSAITAYSMPPVIKVDRPFHFMIYEETSGMLLFLGRVVNPTLL [D95A;D259A;K260A;E404A]
4 | with no effect | with no effect |  | MKVVPSLLLSVLLAQVWLVPGLAPSPQSPETPAPQNQTSRVVQAPKEEEEDEQEASEEKASEEEKAWLMASRQQLAKETSNFGFSLLRKISMRHDGNMVFSPFGMSLAMTGLMLGATGPTETQIKRGLHLQALKPTKPGLLPSLFKGLRETLSRNLELGLTQGSFAFIHKDFDVKETFFNLSKRYFDTECVPMNFRNASQAKRLMNHYINKETRGKIPKLFDEINPETKLILVDYILFKGKWLTPFDPVFTEVDTFHLDKYKTIKVPMMYGAGKFASTFDKNFRCHVLKLPYQGNATMLVVLMEKMGDHLALEDYLTTDLVETWLRNMKTRNMAVFFPKFKLDQKYEMHELLRQMGIRRIFSPFADLSELSATGRNLQVSRVLQRTVIEVDERGTEAVAGILSEITAYSMPPVIKVDRPFHFMIYEETSGMLLFLGRVVNPTLL [E334A]
5 | with no effect | with no effect |  | MKVVPSLLLSVLLAQVWLVPGLAPSPQSPETPAPQNQTSRVVQAPKEEEEDEQEASEEKASEEEKAWLMASRQQLAKETSNFGFSLLRKISMRHDGNMVFSPFGMSLAMTGLMLGATGPTETQIKRGLHLQALKPTKPGLLPSLFKGLRETLSRNLELGLTQGSFAFIHKDFDVKETFFNLSKRYFDTECVPMNFRNASQAKRLMNHYINKETRGKIPKLFDEINPETKLILVDYILFKGKWLTPFDPVFTEVDTFHLDKYKTIKVPMMYGAGKFASTFDKNFRCHVLKLPYQGNATMLVVLMEKMGDHLALEDYLTTDLVETWLRNMKTRNMAVFFPKFKLDQKYEMHELLRQMGIRRIFSPFADLSELSATGRNLQVSRVLQRTVIEVDERGTEAVAGILSAITAYSMPPVIKVDRPFHFMIYEETSGMLLFLGRVVNPTLL [E334A;E404A]
6 |  | decreasing interaction strength |  | MKVVPSLLLSVLLAQVWLVPGLAPSPQSPETPAPQNQTSRVVQAPKEEEEDEQEASEEKASEEEKAWLMASRQQLAKETSNFGFSLLRKISMRHDGNMVFSPFGMSLAMTGLMLGATGPTETQIKRGLHLQALKPTKPGLLPSLFKGLRETLSRNLELGLTQGSFAFIHKDFDVKETFFNLSKRYFDTECVPMNFRNASQAKRLMNHYINKETRGKIPKLFDEINPETKLILVDYILFKGKWLTPFDPVFTEVDTFHLDKYKTIKVPMMYGAGKFASTFDKNFRCHVLKLPYQGNATMLVVLMEKMGDHLALEDYLTTDLVETWLRNMKTRNMEVFFPKFKLDQKYEMHELLRQMGIRRIFSPFADLSELSATGRNLQVSRVLQRTVIEVDERGTEAVAGILSEITARSMPPVIKVDRPFHFMIYEETSGMLLFLGRVVNPTLL [Y408R]

— IntAct's records for PubMed 20427285
